Reference: the supplement of paper PMC9112550, “Optimization of the antimicrobial peptide Bac7 by deep mutational scanning” (BMC Biology, 2022)

System: Escherichia coli TOP10
Test: shrunken log2 fold change of peptide-encoding DNA abundance (4.5 h post-induction vs induction); higher = less antimicrobial activity (less host growth inhibition)
Settings: time post-induction: 4.5 h; library: site-saturation at positions 5, 18, 19, 20
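Also: peptides expressed intracellularly from a pBAD plasmid library in pooled LB shake-flask culture, induced with 0.3% L-arabinose, DNA abundance read by NGS, three biological replicates, DESeq2 with apeglm shrinkage.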

Sequence | shrunken log2 fold change
RRIRARPPRLPRPRPRPRDTPRP | 0.673
RRIRARPPRLPRPRPRPREEPRP | 0.579
RRIRARPPRLPRPRPRPREGPRP | 1.1
RRIRARPPRLPRPRPRPRFHPRP | -0.0673
RRIRARPPRLPRPRPRPRFVPRP | 0.457
RRIRARPPRLPRPRPRPRGGPRP | 0.737
RRIRARPPRLPRPRPRPRGPPRP | 0.933
RRIRARPPRLPRPRPRPRIDPRP | 0.74
RRIRARPPRLPRPRPRPRIVPRP | 0.547
RRIRARPPRLPRPRPRPRMEPRP | 0.539
RRIRARPPRLPRPRPRPRNHPRP | 0.0958
RRIRARPPRLPRPRPRPRNKPRP | 0.271
RRIRARPPRLPRPRPRPRNQPRP | -0.012
RRIRARPPRLPRPRPRPRRSPRP | 0.743
RRIRARPPRLPRPRPRPRSLPRP | 0.0678
RRIRARPPRLPRPRPRPRTLPRP | 0.226
RRIRARPPRLPRPRPRPRTSPRP | 0.382
RRIRARPPRLPRPRPRPRTYPRP | -0.126
RRIRARPPRLPRPRPRPRVTPRP | 0.462
RRIRARPPRLPRPRPRPRWEPRP | 0.431
RRIRARPPRLPRPRPRPRWGPRP | 0.425
RRIRARPPRLPRPRPRPRWNPRP | 0.00795
RRIRARPPRLPRPRPRPRYEPRP | 0.0403
RRIRARPPRLPRPRPRPSADPRP | 0.804
RRIRARPPRLPRPRPRPSCCPRP | 0.207

Sequence | shrunken log2 fold change
RRIRARPPRLPRPRPRPSCLPRP | -0.0189
RRIRARPPRLPRPRPRPSDIPRP | -0.0794
RRIRARPPRLPRPRPRPSDPPRP | -0.0252
RRIRARPPRLPRPRPRPSETPRP | 0.176
RRIRARPPRLPRPRPRPSEVPRP | 0.258
RRIRARPPRLPRPRPRPSGLPRP | 0.0354
RRIRARPPRLPRPRPRPSGPPRP | 0.0223
RRIRARPPRLPRPRPRPSGTPRP | -0.0328
RRIRARPPRLPRPRPRPSIDPRP | -0.0466
RRIRARPPRLPRPRPRPSKAPRP | -0.151
RRIRARPPRLPRPRPRPSKMPRP | -0.00925
RRIRARPPRLPRPRPRPSLCPRP | 0.276
RRIRARPPRLPRPRPRPSLNPRP | -0.0562
RRIRARPPRLPRPRPRPSMFPRP | 0.00699
RRIRARPPRLPRPRPRPSMGPRP | -0.0314
RRIRARPPRLPRPRPRPSNYPRP | -0.901
RRIRARPPRLPRPRPRPSPIPRP | -0.0445
RRIRARPPRLPRPRPRPSQHPRP | -0.117
RRIRARPPRLPRPRPRPSSKPRP | -0.134
RRIRARPPRLPRPRPRPSTQPRP | 0.265
RRIRARPPRLPRPRPRPSTVPRP | 0.123
RRIRARPPRLPRPRPRPSVAPRP | 0.485
RRIRARPPRLPRPRPRPSVKPRP | 0.133
RRIRARPPRLPRPRPRPSVWPRP | -0.0231
RRIRARPPRLPRPRPRPSWEPRP | 0.162

Sequence | shrunken log2 fold change
RRIRARPPRLPRPRPRPSWHPRP | 0.0482
RRIRARPPRLPRPRPRPSYFPRP | -0.555
RRIRARPPRLPRPRPRPSYMPRP | -0.761
RRIRARPPRLPRPRPRPSYTPRP | 1.56
RRIRARPPRLPRPRPRPSYWPRP | -0.184
RRIRARPPRLPRPRPRPTCPPRP | 0.444
RRIRARPPRLPRPRPRPTCYPRP | 0.128
RRIRARPPRLPRPRPRPTEGPRP | 0.941
RRIRARPPRLPRPRPRPTEWPRP | 0.483
RRIRARPPRLPRPRPRPTFHPRP | 0.177
RRIRARPPRLPRPRPRPTFMPRP | 0.106
RRIRARPPRLPRPRPRPTFPPRP | 0.308
RRIRARPPRLPRPRPRPTGFPRP | 0.105
RRIRARPPRLPRPRPRPTGVPRP | 0.439
RRIRARPPRLPRPRPRPTHFPRP | 0.809
RRIRARPPRLPRPRPRPTHHPRP | 0.468
RRIRARPPRLPRPRPRPTIEPRP | 0.225
RRIRARPPRLPRPRPRPTIKPRP | 0.0966
RRIRARPPRLPRPRPRPTIQPRP | 0.0396
RRIRARPPRLPRPRPRPTLQPRP | 0.694
RRIRARPPRLPRPRPRPTLWPRP | 1.05
RRIRARPPRLPRPRPRPTMHPRP | 0.354
RRIRARPPRLPRPRPRPTMNPRP | 0.0878
RRIRARPPRLPRPRPRPTNRPRP | 0.05
RRIRARPPRLPRPRPRPTPCPRP | 0.323

Sequence | shrunken log2 fold change
RRIRARPPRLPRPRPRPTSFPRP | 0.237
RRIRARPPRLPRPRPRPTWCPRP | 0.325
RRIRARPPRLPRPRPRPTYWPRP | 0.144
RRIRARPPRLPRPRPRPVCDPRP | 0.992
RRIRARPPRLPRPRPRPVCFPRP | 0.489
RRIRARPPRLPRPRPRPVCIPRP | 0.11
RRIRARPPRLPRPRPRPVCYPRP | -0.128
RRIRARPPRLPRPRPRPVFGPRP | 0.353
RRIRARPPRLPRPRPRPVFHPRP | -0.253
RRIRARPPRLPRPRPRPVFQPRP | 0.000109
RRIRARPPRLPRPRPRPVFWPRP | 0.699
RRIRARPPRLPRPRPRPVGWPRP | 1.02
RRIRARPPRLPRPRPRPVGYPRP | 0.265
RRIRARPPRLPRPRPRPVHIPRP | -0.177
RRIRARPPRLPRPRPRPVIHPRP | -0.307
RRIRARPPRLPRPRPRPVIPPRP | -0.296
RRIRARPPRLPRPRPRPVKIPRP | 0.0527
RRIRARPPRLPRPRPRPVLPPRP | 0.286
RRIRARPPRLPRPRPRPVNGPRP | -0.133
RRIRARPPRLPRPRPRPVRAPRP | 0.924
RRIRARPPRLPRPRPRPVRHPRP | 0.399
RRIRARPPRLPRPRPRPVSDPRP | 0.576
RRIRARPPRLPRPRPRPVSFPRP | 0.368
RRIRARPPRLPRPRPRPVVFPRP | 0.213
RRIRARPPRLPRPRPRPVVHPRP | 0.297

Sequence | shrunken log2 fold change
RRIRARPPRLPRPRPRPVVRPRP | 0.481
RRIRARPPRLPRPRPRPVWCPRP | 0.293
RRIRARPPRLPRPRPRPVYCPRP | -0.175
RRIRARPPRLPRPRPRPVYHPRP | -0.321
RRIRARPPRLPRPRPRPVYIPRP | -0.355
RRIRARPPRLPRPRPRPVYYPRP | -0.518
RRIRARPPRLPRPRPRPWCGPRP | 0.0572
RRIRARPPRLPRPRPRPWEDPRP | -0.015
RRIRARPPRLPRPRPRPWEVPRP | 0.205
RRIRARPPRLPRPRPRPWGYPRP | -0.317
RRIRARPPRLPRPRPRPWHIPRP | 0.0256
RRIRARPPRLPRPRPRPWIGPRP | 0.15
RRIRARPPRLPRPRPRPWISPRP | -0.333
RRIRARPPRLPRPRPRPWKHPRP | -0.0402
RRIRARPPRLPRPRPRPWKQPRP | 0.00355
RRIRARPPRLPRPRPRPWMFPRP | -0.0244
RRIRARPPRLPRPRPRPWNKPRP | -0.0945
RRIRARPPRLPRPRPRPWNQPRP | -0.247
RRIRARPPRLPRPRPRPWNSPRP | -0.222
RRIRARPPRLPRPRPRPWPNPRP | 0.111
RRIRARPPRLPRPRPRPWVDPRP | -0.0331
RRIRARPPRLPRPRPRPWVYPRP | -0.0996
RRIRARPPRLPRPRPRPWYEPRP | -0.0297
RRIRARPPRLPRPRPRPWYIPRP | -0.257
RRIRARPPRLPRPRPRPWYQPRP | -0.287

Sequence | shrunken log2 fold change
RRIRARPPRLPRPRPRPWYVPRP | -0.0927
RRIRARPPRLPRPRPRPYAHPRP | -0.149
RRIRARPPRLPRPRPRPYATPRP | 0.0217
RRIRARPPRLPRPRPRPYEGPRP | -0.195
RRIRARPPRLPRPRPRPYETPRP | -0.0398
RRIRARPPRLPRPRPRPYFFPRP | -0.225
RRIRARPPRLPRPRPRPYFTPRP | -0.71
RRIRARPPRLPRPRPRPYGHPRP | -0.095
RRIRARPPRLPRPRPRPYHAPRP | -0.0253
RRIRARPPRLPRPRPRPYHDPRP | -0.365
RRIRARPPRLPRPRPRPYHRPRP | -0.047
RRIRARPPRLPRPRPRPYIIPRP | -0.445
RRIRARPPRLPRPRPRPYIKPRP | -1.17
RRIRARPPRLPRPRPRPYILPRP | -0.983
RRIRARPPRLPRPRPRPYIQPRP | -0.873
RRIRARPPRLPRPRPRPYKEPRP | -0.423
RRIRARPPRLPRPRPRPYKHPRP | -0.881
RRIRARPPRLPRPRPRPYLGPRP | 0.0554
RRIRARPPRLPRPRPRPYLKPRP | -0.352
RRIRARPPRLPRPRPRPYMRPRP | -0.0199
RRIRARPPRLPRPRPRPYPMPRP | 0.019
RRIRARPPRLPRPRPRPYQEPRP | 0.0175
RRIRARPPRLPRPRPRPYRKPRP | -0.502
RRIRARPPRLPRPRPRPYRMPRP | 0.0568
RRIRARPPRLPRPRPRPYRPPRP | -0.179
